Experiment [1] addresses SARS-CoV-2 spike glycoprotein S1 region (SARS-CoV-2) (UniProt P0DTC2). The experiment in a line: ELISA, coated antigen.
The target in experiment [2] is SARS-CoV-2 spike receptor binding domain (RBD) (SARS-CoV-2) (UniProt P0DTC2). The experiment is described as follows: ELISA, coated antigen. A general note: In an ELISA, binding on a coated surface is turned into a signal by an enzyme label.
Experiment [3] deals with SARS-CoV-2 spike glycoprotein S1 region (SARS-CoV-2) (UniProt P0DTC2). The experiment is described as follows: ELISA, coated antigen. This is another data set of the same source.
The target in experiment [4] is SARS-CoV-2 spike receptor binding domain (RBD) (SARS-CoV-2) (UniProt P0DTC2). The experiment is described as follows: ELISA, coated antigen. This is another data set of the same source.
The target of experiment [5] is Dengue serotype 1 envelope antigens on pseudotype virus (Dengue virus serotype 1). The experiment in a line: cell-based or functional assay.
In experiment [6] the target is HCoV-229E S1 (HCoV-229E) (UniProt P15423). The experiment in a line: ELISA, antigen coated at 2 µg/mL.
The target of experiment [7] is HCoV-NL63 S1 (HCoV-NL63) (UniProt Q6Q1S2). The experiment in a line: ELISA, antigen coated at 2 µg/mL.
Experiment [8] concerns the target MERS CoV S1 (MERS CoV) (UniProt K9N5Q8). The experiment is described as follows: ELISA, antigen coated at 2 µg/mL.
For experiment [9], the target named is SARS CoV RBD (SARS-CoV) (UniProt P59594). The experiment in a line: ELISA, antigen coated at 2 µg/mL.
Experiment [10] concerns the target SARS-CoV-2 spike on GFP reporter pseudotype virus (SARS-CoV-2) (UniProt P0DTC2). The experiment in a line: cell-based or functional assay.
In experiment [11] the target is SARS-CoV-2 spike receptor binding domain (RBD) (SARS-CoV-2) (UniProt P0DTC2). The experiment is described as follows: RBD:ACE2-His blocking ELISA, competitor ACE2-His.

Like-named read-outs stand apart in the source and are kept apart here.

The EC50 is the concentration giving half of the maximal effect. Read a high EC50 as lower potency in that assay. For IVIG (Gamunex), the EC50 in experiment [1] is 1410 µg/mL; in experiment [2] it was 1270 µg/mL; in [3], 1380 µg/mL; in experiment [4], 1250 µg/mL; in experiment [6], 96 µg/mL; in experiment [7], 140 µg/mL. The figures for the EC50 in experiment [8] and in [9] were 1330 µg/mL and 1280 µg/mL, respectively. Further, the peak OD signal was 1.99 OD in [1] and 2.26 OD in [2]. The substance further returned a Neutralization IC50 in experiment [5] of 12.2 µg/mL.

Take SARS CoV mAb [CR3022] (antibody): the EC50 was determined as 0.078 µg/mL in [3] and 0.088 µg/mL in experiment [4]. In experiment [10], the CoV-2 pseudotype neutralization IC50 was 100 µg/mL.

Broadly, the IC50 is the concentration needed to halve the response being measured. A higher IC50 goes with weaker potency. For SARS CoV-2 mAb [SAD-S35] (antibody), the EC50 in experiment [3] was 0.058 µg/mL; in experiment [4], 0.057 µg/mL. In [10], this substance yielded a CoV-2 pseudotype neutralization IC50 of 0.26 µg/mL. In experiment [11], this substance gave an IC50 of 1.1 µg/mL.

The record behind these values is patent US20230265171A1.
